Here are results for one substance from US8119117.

The target in this assay is CD40 receptor on dendritic cells (mouse) (UniProt P27512). The assay can be described thus: cell-based or functional assay.
Sequence of UniProt P27512 (P27512 20-289): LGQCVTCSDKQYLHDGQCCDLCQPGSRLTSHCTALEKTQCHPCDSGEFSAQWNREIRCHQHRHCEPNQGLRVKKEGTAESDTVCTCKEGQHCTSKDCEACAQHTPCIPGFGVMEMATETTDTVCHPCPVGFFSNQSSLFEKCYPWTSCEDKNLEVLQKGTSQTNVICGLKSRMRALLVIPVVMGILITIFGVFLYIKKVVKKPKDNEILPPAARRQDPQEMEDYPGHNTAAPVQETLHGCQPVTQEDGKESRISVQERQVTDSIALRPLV

“E7-ΔCtΔTmCD40L fusion protein (secreted; HPV type 16 E7, 10 amino acid linker, murine CD40 ligand residues 52-260) (from UniProt P03129 1-98; P27548 52-260)”: the IFN-γ released by DCs exposed to the vector (ELISA), first 24 hours worked out at 335 pg; the IL-12 produced by DCs exposed to the vector (ELISA), 24 h (pg/2×10^5 cell/ml/24 h) came to 18; the IL-12 produced by DCs exposed to the vector (ELISA), 48 h (pg/2×10^5 cell/ml/48 h) was 88.
